Consider one substance from PMC2190859.

In the assay the target is collagen. Nature of the assay: cell adhesion assay.

In turn, “very late antigen 4 (VLA-4, alpha4 beta1 integrin) (from UniProt P13612;P05556) (receptor)” yielded a percent of cells binding of less than 5%.
